Legend:
[1] = biological target: GAGAH (GAGA zinc finger/AT-Hook conjugate) (UniProt Q08605); test: fluorescence anisotropy; details: Zn2+, Anisotropy (given for GAGAH): 20 mM Tris-HCl pH 7.5, 100 mM NaCl, 0.02 mM ZnCl2, 20 C, 25 nM TMR-DNA, EMSA: 75 nM dsDNA, rt (GAGAH), 10% native PAGE, 0.5x TBE …
[2] = biological target: brH (GCN4 basic region/AT-Hook conjugate) (UniProt P03069); test: fluorescence anisotropy; details: 20 C; 25 nM DNA; apparent; Anisotropy (given for GAGAH): 20 mM Tris-HCl pH 7.5, 100 mM NaCl, 0.02 mM ZnCl2, 20 C, 25 nM TMR-DNA; EMSA: 75 nM dsDNA, rt (GAGAH), 10% native PAGE, 0.5x TBE …

Sequence of UniProt Q08605 (Q08605 other isoform, or with tags, fused parts or gaps, change not shown): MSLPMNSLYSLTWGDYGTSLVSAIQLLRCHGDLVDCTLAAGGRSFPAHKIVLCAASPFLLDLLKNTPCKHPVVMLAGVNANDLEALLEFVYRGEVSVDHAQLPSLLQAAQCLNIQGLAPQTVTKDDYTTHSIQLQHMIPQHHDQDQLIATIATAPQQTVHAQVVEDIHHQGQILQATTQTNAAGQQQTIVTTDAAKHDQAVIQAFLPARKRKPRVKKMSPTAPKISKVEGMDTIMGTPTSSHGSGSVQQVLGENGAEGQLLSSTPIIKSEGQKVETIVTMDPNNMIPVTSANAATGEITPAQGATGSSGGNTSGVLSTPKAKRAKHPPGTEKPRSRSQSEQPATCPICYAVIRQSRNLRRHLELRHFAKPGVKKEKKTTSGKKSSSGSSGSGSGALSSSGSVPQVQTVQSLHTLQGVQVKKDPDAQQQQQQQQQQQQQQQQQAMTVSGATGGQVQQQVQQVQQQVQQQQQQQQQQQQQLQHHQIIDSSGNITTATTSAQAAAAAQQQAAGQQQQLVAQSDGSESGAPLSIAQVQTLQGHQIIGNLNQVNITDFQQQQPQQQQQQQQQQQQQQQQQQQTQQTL

## CGCGTCATAATTGAGAGCGC (double strand) [TMR-AP1hs·AT = TMR-AT·GAGA]
[1]; 20 C, 25 nM DNA, apparent
  Kd: 26 nM
[1]; excess calf thymus DNA competitor
  Kd: 42 nM
[2]
  Kd: 28 nM
